B1: anti-Gc (ectodomain) 변이체 Fab 클론 Gc-3-1E12 (Fab, V domains shown)
VH: EVQLVESGGGLVQPGGSLRLSCAASGFTFSDYAMHWVRQAPGKGLEWVSGISSSGGSTFYADSVKGRFTISRDNSKNTLYLQMNSLRAEDTAVYYCAKWEWGYQERKWAFDLWGQGTLVTVSS
VL: DIQMTQSPSSLSASVGDRVTITCRASQSISNYLNWYQQKPGKAPKLLIYATSSLQSGVPSRFSGSGSGTDFTLTISSLQPEDFATYYCQQTYSFPWTFGQGTKVEIK
B2: anti-Gc (ectodomain) 변이체 Fab 클론 Gc-4-1C8 (Fab, V domains shown)
VH: EVQLVESGGGLVQPGGSLRLSCAASGFTFSDYAMNWVRQAPGKGLEWVSSISSSGSSTYYADSVKGRFTISRDNSKNTLYLQMNSLRAEDTAVYYCAKVKWRQSTSEYFDYWGQGTLVTVSS
VL: B1 VL with S28T, T51A, S53T, T91S
B3: anti-Gc (ectodomain) 변이체 Fab 클론 Gc-b3-1E2 (Fab, V domains shown)
VH: EVQLVESGGGLVQPGGSLRLSCAASGFTFSNYAMNWVRQAPGKGLEWVSAISGSGSSTYYADSVKGRFTISRDNSKNTLYLQMNSLRAEDTAVYYCAKQFYVGQWLSGWFDVWGQGTLVTVSS
VL: B1 VL with S53R, T91S

Numbering of substitutions follows the chain as printed.

In this test the target is SFTSV Gc 변이체 (Severe Fever with Thrombocytopenia Syndrome Virus).
A word on the EC50: it is the concentration that produces a half-maximal response. High values mean a less potent agent, low ones a more potent agent. As for B1, the EC50 came to 6 nM.
In the case of B2 it was 157 nM.
Next, B3: 89 nM.

Source of the values: KR20230076376A.
